# Test results reported in CN113999301A (JIANGSU XINTRUM PHARMACEUTICALS CO LTD, dated 2022).
# Target: 新冠原始假病毒的S蛋白 (FNV-SARS-CoV-2-S) (SARS-CoV-2, UniProt P0DTC2 14-1273)
# Experiment: cell-based or functional assay
binder,measurement,value
"抗SARS-CoV-2(COVID-19)S蛋白RBD单克隆抗体B15-5-B3 (antibody, V domains shown) VH: EVKFEESGGGLVQPGGSMKLSCAASGFTFSDAWMDWVRQSPEKGLEWVAEIRNKANNHATYYAESVKGRFTISRDDSKSSVYLQMNSLRAEDTGIYYCTPYDYAYPWFWGQGTLVTVSA VL: EIVLTQSPTTMAASPGEKITITCSASSSISSHYLHWYQQKPGFSPKLLIYRSYSLASGFPGRFSGSGSGTSFSLSIGTMEAEDVATYYCQQGSSRITPFGGGTKLEIK","假病毒中和效应 EC50 (luciferase, HEK293-ACE2 cells)",36.9 ng/mL
